Where two headings read alike, the source gives them in different places.
What was measured:
HDL = test system: HDL
Protocol: (§1) The association of peptide 4 (SEQ ID NO:4) with human lipoprotein fractions was determined by incubating ^14C-labeled peptide 4 (SEQ ID NO:4) with each lipoprotein class (HDL, LDL and VLDL) and a mixture of the different lipoprotein classes.
(§2) HDL, LDL and VLDL were isolated by KBr density gradient ultracentrifugation at d=1.21 g/ml and purified by FPLC on a Superose 6B column size exclusion column (chromatography was carried out with a flow rate of 0.7 ml/min. and a running buffer of 10 mM Tris (pH 8), 115 mM NaCl, 2 mM EDTA and 0.01% NaN3). ^14C-labeled peptide 4 was incubated with HDL, LDL and VLDL at a peptide:phospholipid ratio of 1:5 (mass ratio) for 2 h at 37° C. The required amount of lipoprotein (volumes based on amount needed to yield 1000 μg) was mixed with 0.2 ml of peptide stock solution (1 mg/ml) and the solution was brought up to 2.2 ml using 0.9% of NaCl according to TABLE XIII:
(§3) After incubating for 2 hr. at 37° C., an aliquot (0.1 ml) was removed for liquid scintillation counting to determine the total radioactivity, the density of the remaining incubation mixture was adjusted to 1.21 g/ml with KBr, and the samples centrifuged at 100,000 rpm (300,000 g) for 24 hours at 4° C. in a TLA 100.3 rotor using a Beckman tabletop ultracentrifuge. The resulting supernatant was fractionated by removing 0.3 ml aliquots from the top of each sample for a total of 5 fractions, and 0.05 ml of each fraction was used for liquid scintillation counting. The top two fractions contain the floating lipoproteins, the other fractions (3-5) correspond to proteins/peptides in solution.

LDL = test system: LDL
Protocol: as §1, §2, §3

VLDL = test system: VLDL
Protocol: as §1, §2, §3

[1] = test system: mixture of HDL, LDL and VLDL
Protocol: as §1, §2, §3

[2] = HDL cholesterol in rabbits after injection of phospholipid/peptide complexes; assay type: in vivo, Male New Zealand White rabbits; set-up: HDL Cholesterol: unit not given here
Protocol: Small discoidal particles consisting of phospholipid (DPPC) and peptide were prepared following the cholate dialysis method. The phospholipid was dissolved in chloroform and dried under a stream of nitrogen. The peptide was dissolved in buffer (saline) at a concentration of 1-2 mg/ml. The lipid film was redissolved in buffer containing cholate (43° C.) and the peptide solution was added at a 3:1 phospholipid/peptide weight ratio. The mixture was incubated overnight at 43° C. and then dialyzed at 43° C. (24 hr.), room temperature (24 hr.) and 4° C. (24 hr.), with three changes of buffer (large volumes) at temperature point. The complexes were filter sterilized (0.22 μm) for injection and storage at 4° C.
Male New Zealand White rabbits (2.5-3 kg) were injected intravenously with a dose of phospholipid/peptide complex (5 or 10 mg/kg bodyweight, expressed as peptide) in a single bolus injection not exceeding 10-15 ml. The animals were slightly sedated before the manipulations. Blood samples (collected on EDTA) were taken before and 5, 15, 30, 60, 240 and 1440 minutes after injection. The hematocrit (Hct) was determined for each sample. Samples were aliquoted and stored at −20° C. before analysis.
Plasma Lipids. The total plasma cholesterol, plasma triglycerides and plasma phospholipids were determined enzymatically using commercially available assays according to the manufacturer's protocols (Boehringer Mannheim, Mannheim, Germany and Biomerieux, 69280, Marcy-L'étoile, France).
Lipoprotein Profiles. The plasma lipoprotein profiles of the fractions obtained after the separation of the plasma into its lipoprotein fractions were determined by spinning in a sucrose density gradient. The fractions were collected and in each individual fraction the phospholipid and cholesterol content was measured enzymatically.

[3] = Protocol: […] (test sample). Delipidation was carried out by extracting the lipids with an equal volume of 2:1 (v/v) chloroform:methanol.
The samples were loaded onto a reverse-phase C18 HPLC column and eluted with a linear gradient (25-58% over 33 min.) of acetonitrile (containing 0.1% TFA). Elution profiles were followed by absorbance (220 nm) and radioactivity.

[4] = Control (peptide without lipoprotein)

PVLDLFRELLNELLEALKQKLK [peptide 4]
Recovery (HDL; HDL/Peptide): 91%
radioactivity Total (HDL; HDL/Peptide): 89970
radioactivity Total before centrifugation (HDL; HDL/Peptide): 98494
radioactivity in Fraction 1 (HDL; HDL/Peptide): 61510
radioactivity in Fraction 2 (HDL; HDL/Peptide): 17620
radioactivity in Fraction 3 (HDL; HDL/Peptide): 2260
radioactivity in Fraction 4 (HDL; HDL/Peptide): 3130
radioactivity in Fraction 5 (HDL; HDL/Peptide): 5450
share of total radioactivity in fractions 1 and 2 (associated with lipoprotein) (HDL; incubation with isolated HDL): 88%
Recovery (LDL; LDL/Peptide): 89%
radioactivity Total (LDL; LDL/Peptide): 89330
radioactivity Total before centrifugation (LDL; LDL/Peptide): 100452
radioactivity in Fraction 1 (LDL; LDL/Peptide): 43740
radioactivity in Fraction 2 (LDL; LDL/Peptide): 15140
radioactivity in Fraction 3 (LDL; LDL/Peptide): 11880
radioactivity in Fraction 4 (LDL; LDL/Peptide): 10860
radioactivity in Fraction 5 (LDL; LDL/Peptide): 7710
share of total radioactivity in fractions 1 and 2 (associated with lipoprotein) (LDL; incubation with isolated LDL): 66%
Recovery (VLDL; VLDL/Peptide): 75%
radioactivity Total (VLDL; VLDL/Peptide): 73280
radioactivity Total before centrifugation (VLDL; VLDL/Peptide): 97306
radioactivity in Fraction 1 (VLDL; VLDL/Peptide): 42920
radioactivity in Fraction 2 (VLDL; VLDL/Peptide): 19280
radioactivity in Fraction 3 (VLDL; VLDL/Peptide): 3930
radioactivity in Fraction 4 (VLDL; VLDL/Peptide): 2600
radioactivity in Fraction 5 (VLDL; VLDL/Peptide): 4550
share of total radioactivity in fractions 1 and 2 (associated with lipoprotein) (VLDL; incubation with isolated VLDL): 85%
Recovery [1, 4]: 89%
radioactivity Total [1, 4]: 79170
radioactivity Total before centrifugation [1, 4]: 88550
radioactivity in Fraction 1 [1, 4]: 650
radioactivity in Fraction 2 [1, 4]: 1000
radioactivity in Fraction 3 [1, 4]: 6590
radioactivity in Fraction 4 [1, 4]: 36550
radioactivity in Fraction 5 [1, 4]: 34380
FPLC analysis of the LP/peptide incubation mixture (in words) ([1]; LP/Peptide): nearly all of the ^14C-labeled peptide 4 was associated with the HDL fraction
Recovery ([1]; LP/Peptide): 87%
radioactivity Total ([1]; LP/Peptide): 83650
radioactivity Total before centrifugation ([1]; LP/Peptide): 96646
radioactivity in Fraction 2 ([1]; LP/Peptide): 12990
radioactivity in Fraction 3 ([1]; LP/Peptide): 3810
radioactivity in Fraction 4 ([1]; LP/Peptide): 1510
radioactivity in Fraction 5 ([1]; LP/Peptide): 5090
radioactivity in Fraction 1 ([1]; LP/Peptide (HDL, LDL and VLDL)): 60250
labeled peptide associated with the lipoprotein fraction ([1]; LP/Peptide, all lipoprotein fractions): 88%
HDL Cholesterol ([2]; 10 mg/kg i.v. as peptide/DPPC complexes, 15 min.): 428
HDL Cholesterol ([2]; 10 mg/kg i.v. as peptide/DPPC complexes, time not printed (row between 0 and 15 min.)): 408
Increase in HDL Cholesterol ([2]; 10 mg/kg, 15 min.): 31.3%
HDL Cholesterol ([2]; 10 mg/kg, 60 min.): 387
Increase in HDL Cholesterol ([2]; 10 mg/kg, 60 min.): 18.9%
HDL Cholesterol ([2]; 10 mg/kg, 240 min.): 291
Increase in HDL Cholesterol ([2]; 10 mg/kg, 240 min.): −10.7%
HDL Cholesterol ([2]; 10 mg/kg, 1440 min.): 347
Increase in HDL Cholesterol ([2]; 10 mg/kg, 1440 min.): 6.6%
duration of the increase in cholesterol of the HDL fractions ([2]; 10 mg/kg, apparent at 5 min. following injection): approximately 1 hr
Increase in HDL Cholesterol ([2]; 10 mg/kg, time not printed (row between 0 and 15 min.)): 25.2%
peptide remaining intact ([3]; 8 day incubation in human serum, 37° C.): more than 80%
degraded peptide (3 min. peak), share of total radioactivity ([3]; human plasma, 8 days at 37° C.): approximately 15%

Reference: patent US6602854B1, “Branched multimeric Apo A-I agonist compounds” (priority 1997, dated 2003)
